Some targets named below: HLA-A*02:02; HLA-A*02:05; HLA-A*02:01.
Holding throughout (assay): IEDB peptide-MHC binding, cellular MHC/competitive/radioactivity; ≥ and ≤ were set here for values at or beyond the usual limits of such assays
The mark [1] stands for this setting: source organism: Human immunodeficiency virus 1.
[2] abbreviates: source organism: Human immunodeficiency virus type 1 BH10.
The mark [3] stands for this setting: source organism: Hepatitis B virus subtype adw2.

For the sequence DPKVKQWPL, the IC50 with HLA-A*02:02 (setting [1]) and in the assay with HLA-A*02:05 (setting [1]) was 10000 nM each time.
EADPTGHSY: the IC50 with HLA-A*02:01 (source organism: Homo sapiens), in the assay with HLA-A*02:02 (source organism: Homo sapiens) and in the assay with HLA-A*02:05 (source organism: Homo sapiens) was 10000 nM each time.
With ILKEPVHGV, the concentration for half-maximal inhibition (IC50) came to 150 nM with HLA-A*02:02 (setting [2]) and 9.4 nM in the assay with HLA-A*02:05 (setting [2]).
Consider IVGAETFYV, for which the concentration for half-maximal inhibition (IC50) worked out at 3.5 nM with HLA-A*02:01 (source organism: HIV-1 M:B_MN), 62 nM with HLA-A*02:02 (source organism: HIV-1 M:B_MN) and 6.5 nM with HLA-A*02:05 (source organism: HIV-1 M:B_MN).
Turning to LLGRNSFEV, the figures for the IC50 in the assay with HLA-A*02:02 (source organism: Homo sapiens) and with HLA-A*02:05 (source organism: Homo sapiens) were 87 nM and 19 nM, respectively.
With LLPIFFCLWV, the IC50 with HLA-A*02:05 (setting [3]) is 10000 nM.
STLPETTVVRR: the IC50 with HLA-A*02:01 (setting [3]) turned out to be 1310 nM; with HLA-A*02:02 (setting [3]), 10000 nM; with HLA-A*02:05 (setting [3]), 10000 nM.
WLSLLVPFV: the values for the IC50 in the assay with HLA-A*02:02 (setting [3]) and with HLA-A*02:05 (setting [3]) were 34 nM and 4 nM, respectively.
For YLHTLWKAGI, in that order: 53 nM and 57 nM.

Usually IC50 stands for the point on the concentration scale where inhibition reaches its midpoint.
